Data from article PMC10786891, “Massively parallel profiling of RNA-targeting CRISPR-Cas13d”.

T1: EsCas13d, nuclease-dead (Eubacterium siraeum, UniProt B0MS50, R295A;H300A;R849A;H854A)
T1 sequence: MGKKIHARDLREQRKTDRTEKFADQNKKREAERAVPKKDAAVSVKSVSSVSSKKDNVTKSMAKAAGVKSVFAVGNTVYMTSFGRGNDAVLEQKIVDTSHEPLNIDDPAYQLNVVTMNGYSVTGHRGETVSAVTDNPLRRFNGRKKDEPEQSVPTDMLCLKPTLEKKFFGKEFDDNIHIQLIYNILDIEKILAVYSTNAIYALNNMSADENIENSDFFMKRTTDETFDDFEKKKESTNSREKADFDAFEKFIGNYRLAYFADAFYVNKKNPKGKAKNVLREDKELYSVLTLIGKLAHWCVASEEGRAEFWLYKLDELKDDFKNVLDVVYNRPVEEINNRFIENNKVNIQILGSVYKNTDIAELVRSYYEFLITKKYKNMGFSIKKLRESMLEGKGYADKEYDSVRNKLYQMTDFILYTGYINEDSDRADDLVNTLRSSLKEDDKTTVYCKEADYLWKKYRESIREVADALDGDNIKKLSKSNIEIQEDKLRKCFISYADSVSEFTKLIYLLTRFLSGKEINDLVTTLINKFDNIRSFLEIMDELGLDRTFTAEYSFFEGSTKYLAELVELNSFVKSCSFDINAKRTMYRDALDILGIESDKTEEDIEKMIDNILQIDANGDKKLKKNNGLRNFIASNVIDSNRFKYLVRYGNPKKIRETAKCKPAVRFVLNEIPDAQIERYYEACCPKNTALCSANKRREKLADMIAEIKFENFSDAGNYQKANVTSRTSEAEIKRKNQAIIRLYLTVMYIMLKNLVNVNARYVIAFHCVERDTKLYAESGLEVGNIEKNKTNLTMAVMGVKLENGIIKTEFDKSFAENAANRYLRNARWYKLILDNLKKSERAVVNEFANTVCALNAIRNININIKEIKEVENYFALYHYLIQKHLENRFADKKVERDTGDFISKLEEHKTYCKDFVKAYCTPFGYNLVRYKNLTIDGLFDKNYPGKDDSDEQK

B1: target 1 G17C (mixed)
RNA 1: CACCCGUGCAAAAAUGCAGGGGUCUAAAACUGAGCGGAUAACCUCUCUAUGG
RNA 2: GGGAAUGGAUCCACAUCUACGAAUUCGUACCAUACAGAGGUUAUCCGCUCACCGAGAUCGGAAGAGCACACGU
B2: target 1 MT 5'PFS GGU 3'PFS UUC (mixed)
RNA 1: CACCCGUGCAAAAAUGCAGGGGUCUAAAACUGAGCGGAUAACCUCUCUAUGG
RNA 2: GGGAAUGGAUCCACAUCUACGAAUUCGGUCCAUAGAGAGGUUAUCCGCUCAUUCAGAUCGGAAGAGCACACGU
B3: target 1 MT 5'PFS GUG 3'PFS ACG (mixed)
RNA 1: CACCCGUGCAAAAAUGCAGGGGUCUAAAACUGAGCGGAUAACCUCUCUAUGG
RNA 2: GGGAAUGGAUCCACAUCUACGAAUUCGUGCCAUAGAGAGGUUAUCCGCUCAACGAGAUCGGAAGAGCACACGU
B4: target 1 MT 5'PFS AGU 3'PFS CCG (mixed)
RNA 1: CACCCGUGCAAAAAUGCAGGGGUCUAAAACUGAGCGGAUAACCUCUCUAUGG
RNA 2: GGGAAUGGAUCCACAUCUACGAAUUCAGUCCAUAGAGAGGUUAUCCGCUCACCGAGAUCGGAAGAGCACACGU
B5: target 1 MT 5'PFS CAA 3'PFS UAU (mixed)
RNA 1: CACCCGUGCAAAAAUGCAGGGGUCUAAAACUGAGCGGAUAACCUCUCUAUGG
RNA 2: GGGAAUGGAUCCACAUCUACGAAUUCCAACCAUAGAGAGGUUAUCCGCUCAUAUAGAUCGGAAGAGCACACGU
B6: target 1 MT 5'PFS AGC 3'PFS AUA (mixed)
RNA 1: CACCCGUGCAAAAAUGCAGGGGUCUAAAACUGAGCGGAUAACCUCUCUAUGG
RNA 2: GGGAAUGGAUCCACAUCUACGAAUUCAGCCCAUAGAGAGGUUAUCCGCUCAAUAAGAUCGGAAGAGCACACGU
B7: target 1 MT 5'PFS GGG 3'PFS UGC (mixed)
RNA 1: CACCCGUGCAAAAAUGCAGGGGUCUAAAACUGAGCGGAUAACCUCUCUAUGG
RNA 2: GGGAAUGGAUCCACAUCUACGAAUUCGGGCCAUAGAGAGGUUAUCCGCUCAUGCAGAUCGGAAGAGCACACGU
B8: target 1 MT 5'PFS GCA 3'PFS ACU (mixed)
RNA 1: CACCCGUGCAAAAAUGCAGGGGUCUAAAACUGAGCGGAUAACCUCUCUAUGG
RNA 2: GGGAAUGGAUCCACAUCUACGAAUUCGCACCAUAGAGAGGUUAUCCGCUCAACUAGAUCGGAAGAGCACACGU
B9: target 1 insC 3' of 20,insC 3' of 20 (mixed)
RNA 1: CACCCGUGCAAAAAUGCAGGGGUCUAAAACUGAGCGGAUAACCUCUCUAUGG
RNA 2: GGGAAUGGAUCCACAUCUACGAAUUCGUACCACCUAGAGAGGUUAUCCGCUCACCGAGAUCGGAAGAGCACACGU
B10: target 1 MT 5'PFS CCG 3'PFS ACU (mixed)
RNA 1: CACCCGUGCAAAAAUGCAGGGGUCUAAAACUGAGCGGAUAACCUCUCUAUGG
RNA 2: GGGAAUGGAUCCACAUCUACGAAUUCCCGCCAUAGAGAGGUUAUCCGCUCAACUAGAUCGGAAGAGCACACGU
B11: target 1 MT 5'PFS UGG 3'PFS ACU (mixed)
RNA 1: CACCCGUGCAAAAAUGCAGGGGUCUAAAACUGAGCGGAUAACCUCUCUAUGG
RNA 2: GGGAAUGGAUCCACAUCUACGAAUUCUGGCCAUAGAGAGGUUAUCCGCUCAACUAGAUCGGAAGAGCACACGU
B12: target 1 MT 5'PFS GUG 3'PFS ACA (mixed)
RNA 1: CACCCGUGCAAAAAUGCAGGGGUCUAAAACUGAGCGGAUAACCUCUCUAUGG
RNA 2: GGGAAUGGAUCCACAUCUACGAAUUCGUGCCAUAGAGAGGUUAUCCGCUCAACAAGAUCGGAAGAGCACACGU
B13: target 1 MT 5'PFS GGC 3'PFS AGA (mixed)
RNA 1: CACCCGUGCAAAAAUGCAGGGGUCUAAAACUGAGCGGAUAACCUCUCUAUGG
RNA 2: GGGAAUGGAUCCACAUCUACGAAUUCGGCCCAUAGAGAGGUUAUCCGCUCAAGAAGAUCGGAAGAGCACACGU
B14: target 1 MT 5'PFS GGG 3'PFS UGU (mixed)
RNA 1: CACCCGUGCAAAAAUGCAGGGGUCUAAAACUGAGCGGAUAACCUCUCUAUGG
RNA 2: GGGAAUGGAUCCACAUCUACGAAUUCGGGCCAUAGAGAGGUUAUCCGCUCAUGUAGAUCGGAAGAGCACACGU
B15: target 1 MT 5'PFS GGG 3'PFS UGA (mixed)
RNA 1: CACCCGUGCAAAAAUGCAGGGGUCUAAAACUGAGCGGAUAACCUCUCUAUGG
RNA 2: GGGAAUGGAUCCACAUCUACGAAUUCGGGCCAUAGAGAGGUUAUCCGCUCAUGAAGAUCGGAAGAGCACACGU
B16: target 1 MT 5'PFS GUG 3'PFS ACU (mixed)
RNA 1: CACCCGUGCAAAAAUGCAGGGGUCUAAAACUGAGCGGAUAACCUCUCUAUGG
RNA 2: GGGAAUGGAUCCACAUCUACGAAUUCGUGCCAUAGAGAGGUUAUCCGCUCAACUAGAUCGGAAGAGCACACGU
B17: target 1 G5U,A14G (mixed)
RNA 1: CACCCGUGCAAAAAUGCAGGGGUCUAAAACUGAGCGGAUAACCUCUCUAUGG
RNA 2: GGGAAUGGAUCCACAUCUACGAAUUCGUACCAUAGAGGGGUUAUCCUCUCACCGAGAUCGGAAGAGCACACGU
B18: target 1 MT 5'PFS CGC 3'PFS UCG (mixed)
RNA 1: CACCCGUGCAAAAAUGCAGGGGUCUAAAACUGAGCGGAUAACCUCUCUAUGG
RNA 2: GGGAAUGGAUCCACAUCUACGAAUUCCGCCCAUAGAGAGGUUAUCCGCUCAUCGAGAUCGGAAGAGCACACGU
B19: target 1 MT 5'PFS UUU 3'PFS CGU (mixed)
RNA 1: CACCCGUGCAAAAAUGCAGGGGUCUAAAACUGAGCGGAUAACCUCUCUAUGG
RNA 2: GGGAAUGGAUCCACAUCUACGAAUUCUUUCCAUAGAGAGGUUAUCCGCUCACGUAGAUCGGAAGAGCACACGU
B20: target 1 MT 5'PFS CAG 3'PFS AAG (mixed)
RNA 1: CACCCGUGCAAAAAUGCAGGGGUCUAAAACUGAGCGGAUAACCUCUCUAUGG
RNA 2: GGGAAUGGAUCCACAUCUACGAAUUCCAGCCAUAGAGAGGUUAUCCGCUCAAAGAGAUCGGAAGAGCACACGU
B21: target 1 MT 5'PFS GCU 3'PFS CUG (mixed)
RNA 1: CACCCGUGCAAAAAUGCAGGGGUCUAAAACUGAGCGGAUAACCUCUCUAUGG
RNA 2: GGGAAUGGAUCCACAUCUACGAAUUCGCUCCAUAGAGAGGUUAUCCGCUCACUGAGAUCGGAAGAGCACACGU
B22: target 1 MT 5'PFS GCU 3'PFS CUU (mixed)
RNA 1: CACCCGUGCAAAAAUGCAGGGGUCUAAAACUGAGCGGAUAACCUCUCUAUGG
RNA 2: GGGAAUGGAUCCACAUCUACGAAUUCGCUCCAUAGAGAGGUUAUCCGCUCACUUAGAUCGGAAGAGCACACGU
B23: target 1 insC 3' of 11,insG 3' of 9 (mixed)
RNA 1: CACCCGUGCAAAAAUGCAGGGGUCUAAAACUGAGCGGAUAACCUCUCUAUGG
RNA 2: GGGAAUGGAUCCACAUCUACGAAUUCGUACCAUAGAGAGGUCUAGUCCGCUCACCGAGAUCGGAAGAGCACACGU
B24: target 1 MT 5'PFS GCU 3'PFS CUC (mixed)
RNA 1: CACCCGUGCAAAAAUGCAGGGGUCUAAAACUGAGCGGAUAACCUCUCUAUGG
RNA 2: GGGAAUGGAUCCACAUCUACGAAUUCGCUCCAUAGAGAGGUUAUCCGCUCACUCAGAUCGGAAGAGCACACGU
B25: target 1 MT 5'PFS GAA 3'PFS CGA (mixed)
RNA 1: CACCCGUGCAAAAAUGCAGGGGUCUAAAACUGAGCGGAUAACCUCUCUAUGG
RNA 2: GGGAAUGGAUCCACAUCUACGAAUUCGAACCAUAGAGAGGUUAUCCGCUCACGAAGAUCGGAAGAGCACACGU
B26: target 1 MT 5'PFS UGG 3'PFS ACG (mixed)
RNA 1: CACCCGUGCAAAAAUGCAGGGGUCUAAAACUGAGCGGAUAACCUCUCUAUGG
RNA 2: GGGAAUGGAUCCACAUCUACGAAUUCUGGCCAUAGAGAGGUUAUCCGCUCAACGAGAUCGGAAGAGCACACGU
B27: target 1 MT 5'PFS GUG 3'PFS ACC (mixed)
RNA 1: CACCCGUGCAAAAAUGCAGGGGUCUAAAACUGAGCGGAUAACCUCUCUAUGG
RNA 2: GGGAAUGGAUCCACAUCUACGAAUUCGUGCCAUAGAGAGGUUAUCCGCUCAACCAGAUCGGAAGAGCACACGU
B28: target 1 MT 5'PFS GCU 3'PFS CUA (mixed)
RNA 1: CACCCGUGCAAAAAUGCAGGGGUCUAAAACUGAGCGGAUAACCUCUCUAUGG
RNA 2: GGGAAUGGAUCCACAUCUACGAAUUCGCUCCAUAGAGAGGUUAUCCGCUCACUAAGAUCGGAAGAGCACACGU

target: T1, EsCas13d, nuclease-dead; assay: crRNA (strand 1, pre-loaded); Mg2+; 40 mM Tris-HCl pH 7.5, 150 mM NaCl, 6 mM MgCl2, 1 mM DTT, 0.1% Tween-20, 0.2 mg/ml BSA; 25 C; 10 min per concentration, then washed; conditions: tags: His6-TwinStrep-SUMO cleaved; N-terminal SNAP kept (SNAP-Surface 488); label: 3' end held by stalled T7 RNA polymerase

Binder	Kd [µM]
B1	0.04 ± 0.008
B2	0.036 ± 0.006
B3	0.0155 ± 0.001
B4	0.0246 ± 0.0076
B5	0.0345 ± 0.015
B6	0.0565 ± 0.0185
B7	0.0129 ± 0.0013
B8	0.0185 ± 0.0045
B9	0.0447 ± 0.0031
B10	~0.0049
B11	~0.12
B12	0.0241 ± 0.00235
B13	0.0225 ± 0.005
B14	0.043 ± 0.0075
B15	0.0245 ± 0.004
B16	0.0115 ± 0.00075
B17	0.068 ± 0.007
B18	~0.076
B19	~0.065
B20	0.0285 ± 0.008
B21	0.092 ± 0.034
B22	0.026 ± 0.008
B23	0.0318 ± 0.002
B24	0.044 ± 0.014
B25	~0.085
B26	0.054 ± 0.0175
B27	0.0124 ± 0.0011
B28	0.053 ± 0.022
